Laboratory results taken from patent US20240409960A1, “METHOD FOR CONTROLLING PROTEIN FUNCTION” (The University of Tokyo, priority 2021, published 2024).

B1: SPEED-Flp: split Flp (a.a. 2-374 and 375-423), single DD on the N-terminal and C-terminal sides; SEQ ID No: 16 (protein, listed as Saccharomyces cerevisiae)
chain: MVSKYPYDVPDYARSGGSGGMISLIAALAVDYVIGMENAMPWNLPADLAWFKRNTLNKPVIMGRHTWESIGRPLPGRKNIILSSQPSTDDRVTWVKSVDEAIAACGDVPEIMVIGGGRVIEQFLPKAQKLYLTHIDAEVEGDTHFPDYEPDDWESVFSEFHDADAQNSHSYCFEILERRGGSGGSGGKLVPKKKRKVGGSQFDILCKTPPKVLVRQFVERFERPSGEKIASCAAELTYLCWMITHNGTAIKRATFMSYNTIISNSLSFDIVNKSLQFKYKTQKATILEASLKKLIPAWEFTIIPYNGQKHQSDITDIVSSLQLQFESSEEADKGNSHSKKMLKALLSEGESIWEITEKILNSFEYTSRFTKTKTLYQFLFLATFINCGRFSDIKNVDPKSFKLVQNKYLGVIIQCLVTETKTSVSRHIYFFSARGRIDPLVYLDEFLRNSEPVLKRVNRTGNSSSNKQEYQLLKDNLVRSYNKALKKNAPYPIFAIKNGPKSHIGRHLMTSFLSMKGLTELTNVVGNWSDKRASAVARTTYTHQITAIPDHYFALVSRYYAYDPISKEMIALGSGSGATNFSLLKQAGDVEENPGPLEKDETNPIEEWQHIEQLKGSAEGSIRYPAWNGIISQEVLDYLSSYINRRIGGSGGSGGMISLIAALAVDYVIGMENAMPWNLPADLAWFKRNTLNKPVIMGRHTWESIGRPLPGRKNIILSSQPSTDDRVTWVKSVDEAIAACGDVPEIMVIGGGRVIEQFLPKAQKLYLTHIDAEVEGDTHFPDYEPDDWESVFSEFHDADAQNSHSYCFEILERR
modifications: MISC_FEATURE - HAtag; DOMAIN 21..179 Degradation Domain; SIGNAL 190..197 Nuclear Localization Signal; MISC_FEATURE - N-terminal side of Flp; MISC_FEATURE - P2A; MISC_FEATURE - C-terminal side of Flp; DOMAIN 656..814 Degradation Domain
B2: DD-Flp: Flp tagged with single DD; SEQ ID No: 15 (protein, listed as Saccharomyces cerevisiae)
chain: MVSKYPYDVPDYARSGGSGGMISLIAALAVDYVIGMENAMPWNLPADLAWFKRNTLNKPVIMGRHTWESIGRPLPGRKNIILSSQPSTDDRVTWVKSVDEAIAACGDVPEIMVIGGGRVIEQFLPKAQKLYLTHIDAEVEGDTHFPDYEPDDWESVFSEFHDADAQNSHSYCFEILERRGGSGGSGGKLVPKKKRKVGGSQFDILCKTPPKVLVRQFVERFERPSGEKIASCAAELTYLCWMITHNGTAIKRATFMSYNTIISNSLSFDIVNKSLQFKYKTQKATILEASLKKLIPAWEFTIIPYNGQKHQSDITDIVSSLQLQFESSEEADKGNSHSKKMLKALLSEGESIWEITEKILNSFEYTSRFTKTKTLYQFLFLATFINCGRFSDIKNVDPKSFKLVQNKYLGVIIQCLVTETKTSVSRHIYFFSARGRIDPLVYLDEFLRNSEPVLKRVNRTGNSSSNKQEYQLLKDNLVRSYNKALKKNAPYPIFAIKNGPKSHIGRHLMTSFLSMKGLTELTNVVGNWSDKRASAVARTTYTHQITAIPDHYFALVSRYYAYDPISKEMIALKDETNPIEEWQHIEQLKGSAEGSIRYPAWNGIISQEVLDYLSSYINRRI
modifications: MISC_FEATURE - HAtag; DOMAIN 21..179 Degradation Domain; MISC_FEATURE - Flp

Test system: FRT sites (Floxed (FRT)-STOP Fluc reporter) in HEK293 cells
Assay: luciferase assay of Flp-FRT DNA recombination in HEK293 cells
Format: cell-based, human
Conditions: 5 ng plasmid, 24 or 48 hours
Procedure: For constructing the luciferase reporters detecting for the activities of Flp-FRT recombinase, VCre-Vlox recombinase and Dre-rox recombinase, the FRT site ([…]: SEQ ID No: 37), the Vlox site ([…]: SEQ ID No: 38), the rox site ([…]: SEQ ID No: 39), were inserted into HindIII and KpnI sites and ClaI and EcoRI sites in the pcDNA3.1 (+) vector of the luciferase reporter (of loxP-stop-loxP-Fluc).
For luciferase assay, HEK 293 cells were plated at 25,000 cells per well on a 96-well flat white microplate (Thermo Fisher Scientific), and were then cultured for 24 hours at 37° C. in 5% CO2. The cells were transfected with cDNAs encoding destabilized Cre along with the luciferase reporter (loxP-stop-loxP Fluc), using X-tremeGENE9 reagent (Merck Millipore) at 37° C. The total amount of DNA was 50 ng per well. Twenty-four hours after the transfection, TMP or DMSO was added into the cells, and the cells were further cultured for 24 hours or 48 hours. Just before the luciferase assay, the medium was replaced with Hanks' balanced salt solution (HBSS) (Thermo Fisher Scientific) containing 0.2 mM D-luciferin potassium salt. Bioluminescence measurement was performed for 1 second per well at room temperature using a Centro XS^3 LB 960 plate-reading luminometer (Berthold Technologies).

Molecule	background DNA recombination activity in the absence of TMP	TMP-dependent DNA recombination activity (TMP 10 nM or 500 nM)
B1	extremely low background level of DNA recombination activity comparable to a negative control group using the pcDNA3.1 empty vector plasmid	extremely high TMP-dependent DNA recombination activity
B2	high background DNA recombination activity comparable to full-length Flp	–
